We go through 1 molecule from patent US10087245 (Hoffmann-La Roche, dated 2018).

The experiment deals with T1, Pick bodies (cellular inclusions of Pick's disease, only constituted of 3R tau proteins) (human, UniProt P10636-5 2-410, limits assumed).
T1 construct: Target in tissue sections (IHC)
In words: IHC on human paraffin sections, Pick's disease. The method, then: Immunohistochemistry was performed on formalin-fixed tissues (paraffin-embedded or frozen sections or vibratome sections). Standard IHC protocols were applied and adapted for each tissue conditions. As most of immunostaining experiments were performed using paraffin sections, a detailed protocol for paraffin-embedded material is described herein. Immunostaining of brain tissue was performed on 4 µm thick paraffin sections. Both human and mouse tissues were used (Human patients with AD or other tauopathies and Tg4510 mice (Santacruz et al. 2005 Science, 309, 476-481). Sections were de-paraffinized in xylene, rehydrated through ethanol (100%, 90%, and 70%), 5 min for each solution and finally brought to running tap water for 10 min. They were then incubated in 98% formic acid for 5 min, washed again under running tap water, quenched for endogenous peroxidase with 3% hydrogen peroxide and 20% methanol, and finally washed in water. Non-specific binding was blocked by incubating the sections for 30 min in 2% bovine serum albumin in TBS+0.5% Tween. Appropriate dilutions of primary antibodies (1-10 µg/ml of VHH with either His or Strep tag) were then applied and slices incubated overnight in a humidified chamber at 4° C. […]

T1 sequence (P10636 other isoform, or with tags, fused parts or gaps limits assumed): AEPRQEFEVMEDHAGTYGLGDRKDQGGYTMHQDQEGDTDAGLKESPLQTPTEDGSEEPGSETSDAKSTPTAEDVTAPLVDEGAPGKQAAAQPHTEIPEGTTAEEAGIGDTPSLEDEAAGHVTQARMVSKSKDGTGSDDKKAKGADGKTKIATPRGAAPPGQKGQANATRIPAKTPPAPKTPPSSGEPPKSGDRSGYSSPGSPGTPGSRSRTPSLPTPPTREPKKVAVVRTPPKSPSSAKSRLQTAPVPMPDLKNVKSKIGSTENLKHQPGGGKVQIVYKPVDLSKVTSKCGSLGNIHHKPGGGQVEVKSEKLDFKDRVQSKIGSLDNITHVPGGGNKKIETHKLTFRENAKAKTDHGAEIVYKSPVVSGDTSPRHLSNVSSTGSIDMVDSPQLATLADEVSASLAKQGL

B1: VHH Tau-A2 (VHH)
VHH: EVQLQASGGGLVQAGGSLRLSCAASGRSFSGSTMEWYRQAPGKERKFVAAIRTISSRTYYVDSVKGRFTISRDSTKNTVYLQLNSLKVEDTAVYYCAARFSGTIGTTSSVDYWGQGTQVTVSS
notes: Alpaca VHH, expressed in E. coli with a His-tag or a Strep-tag; monomeric by DLS; not shown: 6-Histidine tag (pET23d) or C-terminal Strep-tag (pASK IBA2)
Take B1: the binding result is reported as “no binding”.
